# Measurements reported in patent publication US20110306550A1.
# Target: cellular receptor for the apoE peptide (not named), on cells
# Assay: competition binding on cells (250,000 cells per well, 4 C); competitor/tracer biotinylated apoE 133-149, detected with 125I-streptavidin
binder,measurement,value
"LRVRLASHLRKLRKRLL [COG133 (apoE 133-149 peptide), unlabeled]",IC50,4 µM
